Measured values from IntAct's records for PubMed 17159996.

B1: Tyrosine-protein phosphatase non-receptor type 1 (Homo sapiens), P18031 (parent)
chain: MEMEKEFEQIDKSGSWAAIYQDIRHEASDFPCRVAKLPKNKNRNRYRDVSPFDHSRIKLHQEDNDYINASLIKMEEAQRSYILTQGPLPNTCGHFWEMVWEQKSRGVVMLNRVMEKGSLKCAQYWPQKEEKEMIFEDTNLKLTLISEDIKSYYTVRQLELENLTTQETREILHFHYTTWPDFGVPESPASFLNFLFKVRESGSLSPEHGPVVVHCSAGIGRSGTFCLADTCLLLMDKRKDPSSVDIKKVLLEMRKFRMGLIQTADQLRFSYLAVIEGAKFIMGDSSVQDQWKELSHEDLEPPPEHIPPPPRPPKRILEPHNGKCREFFPNHQWVKEETQEDKDCPIKEEKGSPLNAAPYGIESMSQDTEVRSRVVGGSLRGAQAASPAKGEPSLPEKDEDHALSYWKPFLVNMCVATVLTAGAYLCYRFLFNSNT

Variants of: B1
Settings: with insr_human INSR
For MEMEKEFEQIDKSGSWAAIYQDIRHEASDFPCRVAKLPKNKNRNRYRDVSPFDHSRIKLHQEDNDYINASLIRMEEAQRSYILTQGPLPNTCGHFWEMVWEQKSRGVVMLNRVMEKGSLKCAQYWPQKEEKEMIFEDTNLKLTLISEDIKSYYTVRQLELENLTTQETREILHFHYTTWPDFGVPESPASFLNFLFKVRESGSLSPEHGPVVVHCSAGIGRSGTFCLADTCLLLMDKRKDPSSVDIKKVLLEMRKFRMGLIQTADQLRFSYLAVIEGAKFIMGDSSVQDQWKELSHEDLEPPPEHIPPPPRPPKRILEPHNGKCREFFPNHQWVREETQEDKDCPIREEKGSPLNAAPYGIESMSQDTEVRSRVVGGSLRGAQAASPARGEPSLPEKDEDHALSYWKPFLVNMCVATVLTAGAYLCYRFLFNSNT [K73R;K335R;K347R;K389R], the “effect of a mutation on the interaction” value was “decreasing interaction”.
